Consider eight molecules from publication PMC9126983, “Structural insights into the mechanism of archaellar rotational switching” (Nature Communications, 2022).

“And” between values parts separate entries of the source, which are not always exact repeats. Identical values can stand only once.

First the molecules themselves.
B1: Methanococcus maripaludis CheY, activated with BeF3- (phosphorylated state mimicked) (natural protein, UniProt Q6LYQ5 1-123, looked up)
chain: MASIVKTMIVDDSAFMRNILKRILSTTNKYVVIGEAANGADAIKMAEELQPDLISMDIVMPETDGITATKAIKEKTPEIKIVMCTSVDQEQKMIDAVNAGADGYIVKPFQAPKILEQFNKLFP
modifications: BeF3- phosphomimic (2 mM BeF2 and 20 mM NaF in the buffer); phosphorylation site D57
notes: CheY of Methanococcus maripaludis; The same protein as m10, in buffer with 2 mM BeF2, 20 mM NaF and 20 mM MgCl2; also called CheY-P; source: E. coli BL21 (DE3), purified (Ni-NTA, SEC)
B2: GST-MmCheFCTD (domain or fragment)
chain: IKSLLPKSEDDLDSEMAVESWSGDKLKNEVEQLAPEEQEILTAIYTGITSLELPGMMGMDIDEVEKVLEKLIDQGFLDLVRIRKETDLTEKGRAVTNFIITNF
modifications: GST carrier left out; limits taken as the C-terminal 103 residues (246-348, F348 terminal) used in the CheY:CheFCTD fusion, exact limits are in Fig. S3a; fusion is mainly a dimer by mass photometry /
B3: GST-MmCheFCTD (domain or fragment)
chain: B2 chain

Test [1] addresses Pyrococcus horikoshii CheF (Pyrococcus horikoshii). The experiment in a line: mass photometry; OneMP mass photometer; protein stocks diluted in HEPES buffer; typical working concentrations of MmCheF 25–50 nM.
In a further test the target is FliM FliMN peptide (UniProt P06974). Conditions: cited from earlier work.
The target in test [2] is Methanococcus maripaludis CheF (Methanococcus maripaludis). Description: mass photometry; OneMP mass photometer; protein stocks diluted in HEPES buffer; typical working concentrations of MmCheF 25–50 nM.
For test [3], the target named is FliM 1-249 (Thermotoga maritima) (UniProt Q9WZE6). The settings on record: cited from earlier work.
Test [4] addresses Thermococcus kodakarensis CheF (Thermococcus kodakarensis). The experiment in a line: mass photometry; OneMP mass photometer; protein stocks diluted in HEPES buffer; typical working concentrations of MmCheF 25–50 nM.
In test [5] the target is B3. The experiment in a line: ITC; GST-MmCheFCTD (25 µM) in the sample cell, titrated with MmCheY; 25 °C; 20 mM HEPES-Na pH 7.5, 200 mM NaCl, 20 mM KCl, 20 mM MgCl2, 20 mM NaF, 2 mM BeF2. The settings on record: both partners purified. (In general: Isothermal titration calorimetry measures the heat released or taken up as one component is titrated into another.)
Test [6] deals with B3. The experiment in a line: mass photometry; OneMP mass photometer; protein stocks diluted in HEPES buffer; typical working concentrations of MmCheF 25–50 nM. Conditions: both partners purified.
In test [7] the target is B1. Description: ITC; GST-MmCheFCTD (25 µM) in the sample cell, titrated with MmCheY; 25 °C; 20 mM HEPES-Na pH 7.5, 200 mM NaCl, 20 mM KCl, 20 mM MgCl2, 20 mM NaF, 2 mM BeF2. Conditions: both partners purified.

As a reminder, the stoichiometry N is the number of molecules, sites or subunits per partner or assembly. For orientation: Kd means the equilibrium constant for the complex coming apart.

FliM 1-249 (Thermotoga maritima), sequence (Q9WZE6 1-249): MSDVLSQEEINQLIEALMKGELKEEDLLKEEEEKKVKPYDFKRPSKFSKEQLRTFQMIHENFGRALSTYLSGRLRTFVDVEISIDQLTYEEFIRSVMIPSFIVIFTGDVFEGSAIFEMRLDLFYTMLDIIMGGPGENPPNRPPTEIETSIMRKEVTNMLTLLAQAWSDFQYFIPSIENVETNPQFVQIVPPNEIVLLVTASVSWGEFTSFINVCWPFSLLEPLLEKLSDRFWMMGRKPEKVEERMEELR

For the molecule “Pyrococcus horikoshii CheF (natural protein)”, in test [1], the percent of observations in the dimer species stood at 89% and the stoichiometry N turned out to be 2.

Turning to CheY (from UniProt P0AE67), the Kd with FliM FliMN peptide is 27 µM.

“Methanococcus maripaludis CheF (natural protein)” showed a stoichiometry N in test [2] of 2.

For CheY (from UniProt Q56312), the Kd in test [3] was 0.039 µM.

“Thermococcus kodakarensis CheF (natural protein)”: the stoichiometry N in test [4] was found to be 2.

B1: in the test with GST-MmCheFCTD [5], the “stoichiometry N” value was 1.

On to B2, for which the “stoichiometry N” value with GST-MmCheFCTD [6] is 2 and 4.

For B3, in test [7], binding was put at a Kd of 1.24 ± 0.414 µM.
